We go through 48 sequences from the Immune Epitope Database (IEDB).

Assay [1] concerns the target HLA-B*08:01. Briefly: IEDB peptide-MHC binding, purified MHC/competitive/radioactivity; filed as Kd, often an IC50 or EC50 that approximates it; ≥ and ≤ were set here for values at or beyond the usual limits of such assays.
The target in assay [2] is HLA-A*68:02. The assay is described as above.
Assay [3] addresses HLA-A*02:06. The assay is described as above.
Assay [4] deals with HLA-A*02:03. The description is as above. To be noted: source organism: Trypanosoma cruzi.
Assay [5] deals with HLA-A*02:01. Described as above.
Assay [6] addresses HLA-A*02:02. The description is as above.
In assay [7] the target is HLA-A*03:01. Nature of the assay: IEDB peptide-MHC binding, purified MHC/competitive/fluorescence; filed as Kd, often an IC50 or EC50 that approximates it; ≥ and ≤ were set here for values at or beyond the usual limits of such assays.
For assay [8], the target named is HLA-A*03:01. Nature of the assay: IEDB peptide-MHC binding, purified MHC/competitive/radioactivity; filed as Kd, often an IC50 or EC50 that approximates it; ≥ and ≤ were set here for values at or beyond the usual limits of such assays. To be noted: source organism: Dengue virus 2 Peru/IQT2913/1996.
The target of assay [9] is HLA-A*68:01. The description is as above. The conditions noted are these: source organism: Dengue virus 2 Peru/IQT2913/1996.
Assay [10] addresses HLA-A*31:01. The assay is described as above. To be noted: source organism: Dengue virus 2 Peru/IQT2913/1996.
The target of assay [11] is HLA-A*33:01. The assay is described as above. To be noted: source organism: Dengue virus 2 Peru/IQT2913/1996.
The target in assay [12] is HLA-A*26:01. Described as above.
The target in assay [13] is HLA-A*11:01. Nature of the assay: IEDB peptide-MHC binding, purified MHC/competitive/fluorescence; ≥ and ≤ were set here for values at or beyond the usual limits of such assays.
The target in assay [14] is HLA-A*24:02. The assay is described as above. To be noted: source organism: Zaire ebolavirus.
Assay [15] addresses HLA-A*02:01. Described as above. The conditions noted are these: source organism: Zaire ebolavirus.
Assay [16] addresses HLA-B*27:05. Nature of the assay: IEDB peptide-MHC binding, purified MHC/direct/fluorescence; filed as Kd, often an IC50 or EC50 that approximates it; ≥ and ≤ were set here for values at or beyond the usual limits of such assays. The conditions noted are these: source organism: SARS-CoV1.
The target in assay [17] is HLA-B*08:01. The description is as above. To be noted: source organism: SARS-CoV1.
Assay [18] addresses HLA-B*15:01. The assay is described as above. The conditions noted are these: source organism: Vaccinia virus Copenhagen.
Assay [19] addresses HLA-A*02:01. Described as above. The conditions noted are these: source organism: Vaccinia virus Copenhagen.
Assay [20] has as its target HLA-B*15:01. Nature of the assay: IEDB peptide-MHC binding, purified MHC/competitive/fluorescence; filed as Kd, often an IC50 or EC50 that approximates it; ≥ and ≤ were set here for values at or beyond the usual limits of such assays.
For assay [21], the target named is HLA-A*01:01. Nature of the assay: IEDB peptide-MHC binding, purified MHC/competitive/radioactivity; filed as Kd, often an IC50 or EC50 that approximates it; ≥ and ≤ were set here for values at or beyond the usual limits of such assays. To be noted: source organism: Dengue virus 3 Martinique/1243/1999.
Assay [22] deals with HLA-B*51:01. Nature of the assay: IEDB peptide-MHC binding, purified MHC/competitive/fluorescence; filed as Kd, often an IC50 or EC50 that approximates it; ≥ and ≤ were set here for values at or beyond the usual limits of such assays.
Assay [23] deals with HLA-B*07:02. Nature of the assay: IEDB peptide-MHC binding, purified MHC/direct/fluorescence; filed as Kd, often an IC50 or EC50 that approximates it; ≥ and ≤ were set here for values at or beyond the usual limits of such assays.
Assay [24] addresses HLA-A*11:01. The description is as above. To be noted: source organism: SARS-CoV1.
Assay [25] concerns the target HLA-A*26:01. Nature of the assay: IEDB peptide-MHC binding, purified MHC/competitive/fluorescence; filed as Kd, often an IC50 or EC50 that approximates it; ≥ and ≤ were set here for values at or beyond the usual limits of such assays. To be noted: source organism: Pan troglodytes.
[26] abbreviates: source organism: Dengue virus 4 Philippines/H241/1956.
The mark [27] stands for this setting: source organism: Vaccinia virus WR.
Where [28] appears, read: source organism: Trypanosoma cruzi.
Where [29] appears, read: source organism: Dengue virus 2 Jamaica/1409/1983.
Setting [30] is: source organism: Zaire ebolavirus.
[31] abbreviates: source organism: Escherichia coli F11.
Where [32] appears, read: source organism: Dengue virus 3 Martinique/1243/1999.
Setting [33] is: source organism: Sudan ebolavirus.
Setting [34] is: source organism: Hepatitis C virus (isolate 1).
Setting [35] is: source organism: Pan troglodytes.

As for HALNELPESL, the dissociation constant Kd in [1] (setting [26]) came out at 3740 nM.

As for EARVEFGPL, the Kd in assay [1] (setting [27]) was determined as 177 nM.

For the sequence PRRCLKPVIL, the Kd in assay [1] (source organism: Dengue virus 1 Brazil/97-11/1997) amounted to 2720 nM.

Regarding SLNRNFTLV, the Kd amounted to 227 nM in assay [2] (setting [28]); 0.69 nM in [3] (setting [28]); 0.0957 nM in assay [4]; 23.6 nM in assay [5] (setting [28]); 0.143 nM in assay [6] (setting [28]).

Take LLILCVTQVL: in assay [1] (setting [29]), the Kd amounted to 979 nM.

Consider MQSLKFNRA, for which the Kd in assay [1] (setting [27]) worked out at 307 nM.

For KFFPSSSYRR, the Kd in [7] (source organism: Influenza A virus (A/Fort Monmouth/1/1947-mouse adapted(H1N1))) was determined as 4320 nM.

On to MLINRFTMR, for which the Kd in assay [8] came out at 57 nM; in [9], 17.7 nM; in [10], 4.29 nM; in assay [11], 20.4 nM; in assay [1] (source organism: Dengue virus 2 Peru/IQT2913/1996) it was 906 nM.

Consider ESPSKLASAI, for which the figures for the Kd in assay [2] (setting [29]) and in assay [12] (setting [29]) were 74.2 nM and at least 66200 nM, respectively.

With SRFTPQFLL, the values for the half-maximal inhibitory concentration (IC50) in [13] (setting [30]), in assay [14] and in [15] were 45400 nM, 1730 nM and at least 106000 nM, respectively.

Sequence SVYGLMGFK returned a dissociation constant Kd in [7] (source organism: Myxoma virus) of 9.2 nM.

Turning to YRYLRHGKL, the results for the Kd in assay [16] and in assay [17] were 78.6 nM and 104 nM, respectively.

For the sequence LFMSHVKSV, the Kd in assay [1] (setting [27]) was determined as 3.07 nM; in [18], 15200 nM; in assay [19] it was 1750 nM.

Take MVYKLWFKY: the Kd in assay [7] (source organism: Entamoeba dispar SAW760) worked out at 14100 nM.

For TKTTAKEVAL, the Kd in [1] (source organism: Dengue virus 4 Dominica/814669/1981) is 4000 nM.

In the case of LMWKQITPEL, the Kd in [1] (setting [29]) is 1230 nM.

Turning to TLTSDDLLI, the Kd in assay [5] (source organism: Lassa virus Josiah) was found to be 4170 nM.

For the sequence ELQAALARV, the Kd in [2] (source organism: Homo sapiens) is 2.06 nM; in [3] (source organism: Homo sapiens), 40.5 nM; in [5] (source organism: Homo sapiens), 558 nM; in [6] (source organism: Homo sapiens) it was 117 nM.

On to GIAACLMTY, for which the values for the Kd in [20] (setting [31]) and in assay [7] (setting [31]) were 3000 nM and at least 20000 nM, respectively.

Take ELLRPTTVV: the Kd in assay [2] (setting [28]) came to 91.8 nM; in [3] (setting [28]), 1880 nM; in assay [4] it was 1200 nM; in [5] (setting [28]), 6710 nM; in [6] (setting [28]) it was 6010 nM.

Take ILIEGIFFV: the Kd in [5] (source organism: Human alphaherpesvirus 3) was 0.03 nM.

Regarding ETMETLLLL, the Kd is 17.4 nM in assay [2] (setting [32]), 11500 nM in assay [21] and 96.4 nM in assay [12] (setting [32]).

Regarding LSNTTGRLI, the IC50 in assay [13] (setting [33]) is 55500 nM.

Consider IKRRLRTLIL, for which, in [1] (setting [32]), the Kd is 185 nM.

In the case of RAAGLQDCT, in assay [5] (setting [34]), the Kd was at least 50000 nM.

With FANYKFTLV, the Kd amounted to 17.9 nM in assay [2] (setting [28]), 0.469 nM in assay [3] (setting [28]), 0.609 nM in [4] and 73.8 nM in [6] (setting [28]).

In turn, PENITTAVK came in with an IC50 in assay [13] (setting [33]) of at least 178000 nM.

THNTPVYKL: the IC50 in [13] (setting [30]) was 62400 nM; in [14], 17600 nM; in assay [15], at least 735000 nM.

In assay [22] (source organism: Yersinia pestis Nepal516), MTYLPAWQV had a Kd of at least 20000 nM.

FAIPIAEQI registered a Kd in assay [22] (source organism: Listeria monocytogenes serotype 4b str. CLIP 80459) of at least 20000 nM.

Turning to IRANNNRLP, the IC50 in assay [13] (setting [27]) is at least 208000 nM.

As to VLDQIDKNK, in [13] (setting [27]), the IC50 was at least 71200 nM.

For LMRRGDLPV, the Kd in [1] (setting [29]) is 17.8 nM.

As to LLLMRTTWA, the Kd in [1] (setting [26]) was 18.5 nM.

For SEKMRRERA, in assay [1] (setting [27]), the Kd turned out to be 169 nM.

For NNSWKFNSE, the Kd in [1] (setting [27]) turned out to be 129 nM.

As for FANYNFTLL, the Kd was 0.151 nM in assay [2] (setting [28]), 0.122 nM in assay [3] (setting [28]), 3.42 nM in assay [4] and 0.0839 nM in assay [6] (setting [28]).

On to NKKRFFSDV, for which the Kd in [1] (setting [27]) amounted to 8720 nM.

As for NPKTPKYKF, the Kd in assay [23] (source organism: SARS-CoV1) was at least 28600 nM; in assay [24] it was 3960 nM; in assay [17], 1150 nM.

For RKNGKKVIQL, the Kd in assay [1] (setting [29]) amounted to 161 nM.

As for YSFSMFMSL, the Kd in [1] (setting [27]) worked out at 146 nM.

On to KVRDRNFQL, for which the Kd in [20] (setting [35]) is at least 20000 nM; in assay [25] it was at least 20000 nM; in [22] (setting [35]) it was at least 20000 nM; in assay [23] (source organism: Homo sapiens) it was 8.8 nM.

For the sequence LLGLWGFATA, the Kd is at least 49600 nM in [2] (setting [28]); 61.3 nM in [3] (setting [28]); 1.89 nM in assay [4]; 65.1 nM in [5] (setting [28]); 50.5 nM in [6] (setting [28]).

For the sequence SSTSRFVMF, in [1] (setting [27]), the Kd was found to be 1100 nM.

In the case of IKLTVVVGDI, the Kd in assay [1] (setting [32]) worked out at 1050 nM.

With AAGLQDCTMLV, in assay [5] (setting [34]), the Kd was at least 50000 nM.

RVSRPTTVV: the Kd was 200 nM in assay [2] (setting [28]), 1340 nM in assay [3] (setting [28]), 105 nM in [4] and 6200 nM in assay [6] (setting [28]).

Take KDAWLSLPK: the Kd in assay [7] (source organism: Vibrio cholerae) was at least 20000 nM.
